Experimental data from US20050277575A1 (published 2005).

Target: T1, S100A4 protein (recombinant human, GST tag removed) (human)
T1 chain: YVERW
Assay: cell-based or functional assay

Ac-AGLREVYGASLASYMERW-NH2 [peptide SEQ ID NO 6, Ac-AGLREVYGASLASYMERW-amide]
IC50 for inhibition of the accelerating effect of S100A4 on t-PA-dependent conversion of plasminogen to plasmin: 6 µM
